Substitutions are numbered along the chain they refer to. Numbers in names are those of the source.
T1: human IL-33 (R&D Systems, #3625-IL-010/CF) (human, UniProt O95760 112-270)
T1 sequence (looked up): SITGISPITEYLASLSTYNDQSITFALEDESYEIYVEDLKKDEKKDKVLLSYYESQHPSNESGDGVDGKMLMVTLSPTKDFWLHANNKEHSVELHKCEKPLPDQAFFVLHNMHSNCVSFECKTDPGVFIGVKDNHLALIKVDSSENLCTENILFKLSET

T2: cynomolgus monkey IL-33 expressed with a C-terminal hexahistidine tag (cynomolgus monkey)
T2 chain: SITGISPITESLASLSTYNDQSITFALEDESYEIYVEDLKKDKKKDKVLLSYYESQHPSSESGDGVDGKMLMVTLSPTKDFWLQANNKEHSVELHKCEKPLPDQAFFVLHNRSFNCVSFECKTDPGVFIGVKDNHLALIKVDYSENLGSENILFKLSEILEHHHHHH

B1: H1M9566N (antibody, mouse IgG1, V domains shown)
VH: EVQLLESGGDLVQPGGSLRLSCAASGFTFSSYAMSWVRQAPGKGLEWVSVISGSGSSTDYADSVKGRFTISRDNSRDTLHLQMNSLRAEDTAVYYCAKTFYYFYGLDVWGQGTTVTVSS
VL: DIQMTQSPSSLSASLRDRVTITCRASQGISNYLAWYQQKPGKVPKVLIYAASTLQSGVPSRFSGSGSGTVFTLTISSLQTEDVATYYCQKYSSAPFTFGPGTKVDIK
notes: Human variable domains, mouse IgG1 Fc (H1M)
B2: H1M9565N (antibody, mouse IgG1, V domains shown)
VH: QVTLKESGPVLVKPTESLTLTCSVSGFSLSNVRMGVSWIRQSPGKALEWLAHIFSNDEKSYTTSLKTRLTISKDTSRSQVVLTMTDMDPGDTATYYCARIRNLAFNYWGQGTLVTVSS
VL: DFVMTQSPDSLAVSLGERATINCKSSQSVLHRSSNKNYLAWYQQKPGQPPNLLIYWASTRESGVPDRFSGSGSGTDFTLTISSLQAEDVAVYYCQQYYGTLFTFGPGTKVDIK
notes: as for B1
B3: H1M9568N (antibody, mouse IgG1, V domains shown)
VH: QVLLVQSGAEVKKPGATVKVSCKASGSTFTGYYMHWVRQAPGQGLEWMGWINPNNGGTNYAQKFQGRVTMTRDTSISTAYMELSRLRSDDTAVYYCARELRYNWKSWGQGTLVTVSS
VL: EIVLTQSPGTLSLSPGERVTLSCRASQSVGRPYLAWYQQIPGQAPRLLIYGASSRATDIPDRFSGNGSGTDFTLTISRLEPEDFAVYYCQQYDNSPYTFGQGTRLEIK
notes: as for B1
B4: H4H9629P (antibody, human IgG4, V domains shown)
VH: EVQLVESGGGLVQPGGSLRLSCAASGFTFRSFAMSWVRQAPGKGLELVSDLRTSGGSTYYADSVKGRLTISRDNSKNTLYLQMNSLRAEDTAVYYCAKSHYSTSWFGGFDYWGQGTLVTVSS
VL: DIQMTQSPSSVSASVGDRVTITCRASQGFSSWLAWYQQKPGKAPKLLIYAASSLQSGVPSRFSGSGSGTDFTLTITNLQPEDFATYYCQQANSFPLTFGGGTKVEIK
notes: Human IgG4 Fc (H4H)
B5: H4H9633P (antibody, human IgG4, V domains shown)
VH: EVQLVESGGGLVQPGGSLRLSCAASGFTFSSYVMSWVRQAPGKGLEWVSSISGNGGSTNYADSVKGRFTISRDNSKNTLFLEMNSLRAEDTAVYYCAKSLGTTTTFLGFDYWGQGTLVTVSS
VL: B4 VL with F29I, D70Y, T76S, N77S
notes: Human IgG4 Fc (H4H)
B6: H4H9666P (antibody, human IgG4, V domains shown)
VH: QVQLVQSGAEVKKPGASVKVSCKASGYTFTSYGISWVRQAPGQGLEWMGWIRAYNGYTNYAQKFQGRVTMTTDTSTNTAYMELRTLNSDDTAVYYCARDRYSGSFHGNFDYWGQGTLVTVSS
VL: B4 VL with F29I, S30F, L46V, S53N, Q55E, T76S, N77S, F94L
notes: Human IgG4 Fc (H4H)
B7: H4H9672P (antibody, human IgG4, V domains shown)
VH: EVQLVESGGGLVQPGGSLRLSCAASGFTLRSYVMYWVRQGPGKGLEGVSGISGSSGGTYYTDSVKGRFTISRDNSKNTLFLQMNSLRAEDTAVYFCARSVYSTTWYGGFQHWGQGTLVTVSS
VL: B4 VL with A13V, G28V, F29I, Q38L, T76S, N77G, T85V, A91T
notes: Human IgG4 Fc (H4H)
B8: H4H9676P (antibody, human IgG4, V domains shown)
VH: EVQLVESGGGLVQPGGSLRLSCSASGFTFSSYAMNWVRQAPGKGLEWVTAISGSGGGTYYADSVKGRFTISRDNSKNSLFLQLNSLRAEDTAVYYCAKQTYTSSWYGGFDIWGQGTMVTVSS
VL: B4 VL with K39I, S53R, S63R, T76S, N77S
notes: Human IgG4 Fc (H4H)

biological target: T1, human IL-33 (R&D Systems, …); experiment: cell-based or functional assay

Binder	IC50, inhibition of 10 pM hIL-33 activation of HEK293/hST2/NFkB-luciferase cells [M]
B1	9.5e-10
B2	2.9e-08
B3	2.5e-10
B4	1.3e-11
B5	2.2e-10
B6	3.5e-11
B7	2.5e-11
B8	3.5e-11

Biological target: T2, cynomolgus monkey IL-33 expressed with …
Experiment: cell-based or functional assay

Binder	IC50, inhibition of 5 pM MfIL-33-6His activation of HEK293/hST2/NFkB-luciferase cells [M]
B1	1.5e-09
B2	1.7e-08
B3	3.5e-09
B4	5.5e-08
B5	1.3e-07
B6	7.8e-08
B7	2e-08
B8	8.4e-09

biological target: T1, human IL-33 (R&D Systems, …); experiment: SPR 25C pH7.4, mAb captured
Protocol: (§1) Equilibrium dissociation constants (KD values) for IL-33 binding to purified anti-IL-33 monoclonal antibodies were determined using a real-time surface plasmon resonance biosensor using a Biacore 4000 instrument. The Biacore sensor surface was first derivatized by amine coupling with either a polyclonal rabbit anti-mouse antibody (GE, # BR-1008-38) or with a monoclonal mouse anti-human Fc antibody (GE, # BR-1008-39) to capture anti-IL-33 monoclonal antibodies expressed with mouse or with human IgG4 constant regions, respectively. All Biacore binding studies were performed in 0.01M ADA pH 7.4, 0.15M NaCl, 3 mM EDTA, and 0.05% v/v Surfactant Tween-20 (ABS-ET running buffer). […] Association of either hIL-33 or MfIL-33-6His to the captured monoclonal antibody was monitored for 4 minutes and their dissociation in ABS-ET running buffer was monitored for 10 minutes. The effect of reduced pH on the binding of each anti-IL-33 antibody to either hIL-33 or MfIL-33-6His was studied using an in-line pH chase assay format in 0.01M ADA pH 6.0, 0.15M NaCl, 3 mM EDTA, and 0.05% v/v Surfactant Tween-20 (ABS-ET pH6 buffer). To achieve this, association of either hIL-33 or MfIL-33-6His to the captured monoclonal antibody was monitored for 4 minutes in ABS-ET running buffer. Following a 30 second dissociation of either hIL-33 or MfIL-33-6His in ABS-ET running buffer, ABS-ET pH6 buffer was injected for 3 minutes, and the analyte dissociation under the low-pH conditions was measured. All the binding kinetic experiments were performed at both 25° C. and 37° C. Kinetic association (kₐ) and dissociation (kd) constants were determined by fitting the real-time sensorgrams to a 1:1 binding model using Scrubber 2.0c curve fitting software. Binding dissociation equilibrium constants (KD) and dissociative half-lives (t½) were calculated from the kinetic rate constants as: […]

Binder	kon [M⁻¹ s⁻¹]	Kd [nM]	koff [s⁻¹]	t½ [min]
B1	127000	–	–	–
B3	702000	0.184	0.00013	89
B4	777000	0.29	0.000226	51
B5	656000	0.432	0.000283	41
B6	508000	0.551	0.00028	41
B7	668000	0.527	0.000352	33
B8	1.03e+06	0.334	0.000345	33

Biological target: T2, cynomolgus monkey IL-33 expressed with …
Experiment: SPR 25C pH7.4, mAb captured
Protocol: as §1

Binder	Kd [nM]	koff [s⁻¹]	kon [M⁻¹ s⁻¹]	t½ [min]
B1	0.333	9.75e-05	293000	119
B2	1.77	7.2e-05	40600	160
B3	1.07	0.000261	244000	44
B4	23.9	0.0135	562000	0.9
B5	38	0.00997	262000	1.2
B6	15.9	0.00354	222000	3.3
B7	8.22	0.0036	437000	3.2
B8	4.84	0.00412	852000	2.8

biological target: T1, human IL-33 (R&D Systems, …); experiment: SPR 37C, pH6.0 chase, mAb captured
Protocol: as §1

Binder	koff [s⁻¹]	t½ [min]	t½ Ratio (pH 7.4/pH 6.0)
B1	0.000967	12	3.4
B3	0.0011	10	1.1
B4	0.00582	2	9
B5	0.0024	5	3.5
B6	0.0068	2	8.8
B7	0.00541	2	4.7
B8	0.00524	2	4.1

Biological target: T2, cynomolgus monkey IL-33 expressed with …
Experiment: SPR 37C, pH6.0 chase, mAb captured
Protocol: as §1

Binder	koff [s⁻¹]	t½ [min]	t½ Ratio (pH 7.4/pH 6.0)
B1	0.00115	10	2.9
B2	0.000228	51	1.1
B3	0.00224	5	1.3

Biological target: T2, cynomolgus monkey IL-33 expressed with …
Experiment: competition ELISA, 150 pM MfIL-33-6His on coated hST2-hFc
Protocol: The ability of anti-IL-33 antibodies to block either human IL-33 (hIL-33) or cynomologus monkey IL-33 binding to the human ST2 receptor was measured using a competition sandwich ELISA. […] The antibody/IL-33 mixtures were incubated for 1 hour at room temperature before they were transferred to the hST2-hFc-coated microtiter plates. After incubating for 1 hour at room temperature, the wells were then washed, and plate-bound biotin-hIL-33 was detected with streptavidin conjugated with horse-radish peroxidase (HRP) (Thermo Scientific, Cat # N200), and plate-bound MfIL-33-6His was detected with a HRP conjugated anti-His monoclonal antibody (Qiagen, #34460). All samples were developed with a TMB solution (BD biosciences, #51-2607KC) to produce a colorimetric reaction and then quenched by acidification with 1M sulfuric acid before measuring absorbance at 450 nm on a Victor X5 plate reader. Data analysis was performed using a sigmoidal dose-response model within Prism™ software. […] Percent blockade was calculated as the ratio of the reduction in signal observed in the presence of antibody relative to the difference between the signal with IL-33 alone and background (signal from HRP-conjugated secondary antibody or streptavidin alone). The absorbance measured for the constant concentration of biotin-hIL-33 or MfIL-33-6His alone is defined as 0% blocking and the absorbance measured for no added IL-33 is defined as 100% blocking.

Binder	% Maximum blocking [%]	IC50 [nM]
B1	41	0.22
B2	86	12
B3	38	0.84
B6	40	13
B7	48	5.5
B8	57	3.2
